Results as given in US20070105162A1, “Monovalent avidin and streptavidin compositions” (Massachusetts Institute of Technology, priority 2005, published 2007).

System: biotinylated AP-CFP-TM on HeLa cells
Experiment: Staining of biotinylated AP-CFP-TM on HeLa with Alexa Fluor 568-conjugated streptavidins
Type: cell-based
Details: Alexa Fluor 568 conjugate 10 μg/mL, 10 min at 4° C.
Method: Enzymatic biotinylation and imaging of HeLa transfectants were performed as previously described (Howarth, M. et al., Proc. Natl. Acad. Sci. USA 102: 7583-7588, 2005), except instead of 10 μM biotin and 1 mM ATP, we added 10 μM biotin-AMP (synthesized according to Coleman and Huang; Coleman, T. M. and Huang, F. Chem. Biol. 9: 1227-1236, 2002) to give equivalent biotinylation but minimizing the risk of purinoreceptor activation by ATP (Rathbone, M. P. et al., Prog. Neurobiol. 59: 663-690, 1999). […] Biotinylation of neurons was performed at day in vitro (DIV) 8 in Hanks' Balanced Salt Solution (HBSS) (Invitrogen) with 0.2 μM biotin ligase and 10 μM biotin-AMP for 5 min at 37° C. […] Neurons were washed with NeuroBasal media (Invitrogen) supplemented with B-27 (Invitrogen), 50 U/mL penicillin, 50 μg/mL streptomycin, and 0.2 mM L-glutamine and chased in the same medium for 0 or 2 hr at 37° C. Cells were then fixed in −20° C. methanol. […]
Images of HeLa cells were collected on a Zeiss Axiovert 200M inverted epifluorescence microscope using a 40× oil-immersion lens and a MicroMAX CCD camera (Roper Scientific; Tucson, Ariz.). CFP (420DF20 excitation, 450DRLP dichroic, 475DF40 emission) and Alexa568 (560DF20 excitation, 585DRLP dichroic, 605DF30 emission) images were collected and analyzed using OpenLab software (Improvision; Lexington, Mass.). Fluorescence images were background-corrected. […] Images were scaled to 16 bits and analyzed in Northern Eclipse (Empix Imaging; Ontario, Canada) with user-written software. […] Results were then calculated in terms of clusters per micrometer of dendrite. For assessment of pre-synaptic terminals, clusters were determined as before and average grey levels of clusters were compared between transfected dendrites and untransfected dendrites within the same field of view. […] “n” represents the number of transfected neurons for which clusters were measured. […]

Substance	Alexa staining of biotinylated AP-CFP-TM
D4: Streptavidin tetramer with 4 dead subunits (D: N23A, S27D, S45A, SEQ ID NO:3) [Tetramer D4]	no detectable staining
A1D3: Monovalent streptavidin tetramer: one His6-tagged wild-type (A) subunit and three dead (D) subunits [Tetramer A1D3]	detected equally well
